Square brackets hold non-standard residues; d marks the D form. Ends that are not written are not given here. Cf = 5(6)-carboxyfluorescein label; Ac6c = NC1(C(=O)O)CCCCC1
T1: S. aureus GrpE (Staphylococcus aureus, UniProt P99086 1-208)
T1 construct: source: E. coli (DE3) Rosetta pLysS, purified (IMAC, TEV cleavage, second IMAC)
T1 sequence: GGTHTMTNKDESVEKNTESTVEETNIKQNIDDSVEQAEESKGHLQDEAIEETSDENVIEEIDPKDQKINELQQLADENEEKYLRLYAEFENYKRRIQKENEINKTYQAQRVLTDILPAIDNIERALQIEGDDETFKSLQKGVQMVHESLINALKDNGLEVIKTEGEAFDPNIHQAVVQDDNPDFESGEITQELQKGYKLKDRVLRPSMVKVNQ

T2: E. coli GrpE (Escherichia coli, UniProt P09372 1-197)
T2 construct: also called co-chaperone GrpE; nucleotide exchange factor GrpE; source: E. coli (DE3) Rosetta pLysS, purified (IMAC, TEV cleavage, second IMAC)
T2 sequence: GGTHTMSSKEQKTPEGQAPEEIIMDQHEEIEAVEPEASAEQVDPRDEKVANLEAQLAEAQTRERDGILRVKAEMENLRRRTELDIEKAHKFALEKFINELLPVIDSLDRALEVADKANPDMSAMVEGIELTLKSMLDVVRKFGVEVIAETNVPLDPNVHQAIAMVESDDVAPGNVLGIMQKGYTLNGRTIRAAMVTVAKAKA

T3: E. coli DnaJ (Escherichia coli, UniProt P08622 1-376)
T3 construct: source: E. coli (DE3) Rosetta pLysS, purified (IMAC, TEV cleavage, second IMAC)
T3 sequence: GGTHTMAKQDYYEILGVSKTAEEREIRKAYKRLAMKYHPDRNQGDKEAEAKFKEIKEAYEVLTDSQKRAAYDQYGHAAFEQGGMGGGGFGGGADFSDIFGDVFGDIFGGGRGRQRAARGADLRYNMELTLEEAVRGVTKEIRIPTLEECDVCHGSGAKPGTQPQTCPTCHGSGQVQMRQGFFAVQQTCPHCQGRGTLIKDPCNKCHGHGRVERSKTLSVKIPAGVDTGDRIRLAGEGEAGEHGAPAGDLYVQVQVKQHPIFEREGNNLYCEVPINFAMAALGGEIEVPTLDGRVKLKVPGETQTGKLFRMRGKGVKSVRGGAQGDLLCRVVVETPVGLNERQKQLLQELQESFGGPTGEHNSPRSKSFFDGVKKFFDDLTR


What was measured:
[1] = target: T4, E. coli DnaK (Escherichia coli, UniProt P0A6Y8 1-638); experiment: fluorescence polarisation; competition screen at one concentration: unlabeled peptide 5 µmol/L with 5 µmol/L E. coli DnaK, or 35 µmol/L with 16 µmol/L S. aureus DnaK, 90 min 28°C, then Cf-ARV-1502 (10 µL of 80 nmol/L), 90 min 28°C; duplicates; FP normalized to ARV-1502; conditions: both partners purified
T4 construct: source: E. coli (DE3) Rosetta pLysS, purified (IMAC, TEV cleavage, second IMAC)

[2] = target: T5, S. aureus DnaK (Staphylococcus aureus, UniProt P99110 1-610); experiment: as above; conditions: both partners purified
T5 construct: source: E. coli (DE3) Rosetta pLysS, purified (IMAC, TEV cleavage, second IMAC)

[3] = target: T5, S. aureus DnaK; experiment: fluorescence polarisation; direct titration: protein serially diluted twofold in 23 steps, Cf-labeled peptide added (20 µL of 40 nmol/L to 20 µL); FP-buffer 20 mmol/L Tris-HCl, 150 mmol/L KCl, 5 mmol/L MgCl2, 1 mmol/L NaN3, 2 mmol/L DTT, pH 7.5; 2 h, 28°C, dark; conditions: both partners purified
[4] = target: T6, E. coli DnaK/DnaJ/GrpE-chaperone system (Escherichia coli, UniProt P0A6Y8 1-638; P08622 1-376; P09372 1-197); experiment: fluorescence polarisation; as the direct titration, but with the full chaperone system: DnaK, DnaJ and GrpE (ratio 0.6:1.0:0.9) pre-incubated for 30 min at room temperature; conditions: both partners purified
T6 construct: also called full chaperone system (E. coli); source: E. coli (DE3) Rosetta pLysS, each purified; mixed (ratio 0.6:1.0:0.9) and pre-incubated for 30 min at room temperature

[5] = target: T7, S. aureus DnaK/DnaJ/GrpE-chaperone system (Staphylococcus aureus, UniProt P99110 1-610; P63971 1-379; P99086 1-208); experiment: as above; conditions: both partners purified
T7 construct: also called full chaperone system (S. aureus); source: E. coli (DE3) Rosetta pLysS, each purified; mixed (ratio 0.6:1.0:0.9) and pre-incubated for 30 min at room temperature

[6] = target: T4, E. coli DnaK; experiment: fluorescence polarisation; direct titration: protein serially diluted twofold in 23 steps, Cf-labeled peptide added (20 µL of 40 nmol/L to 20 µL); FP-buffer 20 mmol/L Tris-HCl, 150 mmol/L KCl, 5 mmol/L MgCl2, 1 mmol/L NaN3, 2 mmol/L DTT, pH 7.5; 2 h, 28°C, dark; conditions: both partners purified
[7] = target: T1, S. aureus GrpE; experiment: as above; conditions: both partners purified
[8] = target: T2, E. coli GrpE; experiment: as above; conditions: both partners purified
[9] = target: T3, E. coli DnaJ; experiment: as above; conditions: both partners purified
[10] = target: T4, E. coli DnaK; experiment: cell-based or functional assay

| Binder | binding result [1] | binding result [2] | Kd [3] [µM] | Kd [4] [µM] | Kd [5] [µM] | further results |
| --- | --- | --- | --- | --- | --- | --- |
| [Ac6c]RPKKPRPYLPRLRPPRPVR-NH2 (N-terminus assumed; SMILES CC(C)C[C@H](NC(=O)[C@H](CCCNC(=N)N)NC(=O)[C@@H]1CCCN1C(=O)[C@H](CC(C)C)NC(=O)[C@H](Cc1ccc(O)cc1)NC(=O)[C@@H]1CCCN1C(=O)[C@H](CCCNC(=N)N)NC(=O)[C@@H]1CCCN1C(=O)[C@H](CCCCN)NC(=O)[C@H](CCCCN)NC(=O)[C@@H]1CCCN1C(=O)[C@H](CCCNC(=N)N)NC(=O)C1(N)CCCCC1)C(=O)N[C@@H](CCCNC(=N)N)C(=O)N1CCC[C@H]1C(=O)N1CCC[C@H]1C(=O)N[C@@H](CCCNC(=N)N)C(=O)N1CCC[C@H]1C(=O)N[C@H](C(=O)N[C@@H](CCCNC(=N)N)C(N)=O)C(C)C, source: synthetic peptide, bought: ABclonal, Inc) [peptide 45] | binds | binds | – | – | – | – |
| Cf-RPFFPRPYLPLPRPPRPVR (source: synthetic peptide, in-house (Fmoc/tBu chemistry on Rink amide resin), RP-HPLC purified) [Cf-peptide 102] | – | – | 1.6 | 0.6 | 1.6 | – |
| [Ac6c]RPFFPRPYLPFPRPPRPVR-NH2 (source: synthetic peptide, bought: ABclonal, Inc) [peptide 103] | binds | binds | – | – | – | – |
| Cf-RPDKPRPYLPRPRPPRPVR (also called 5(6)-carboxyfluorescein-labeled ARV-1502; source: synthetic peptide, in-house (Fmoc/tBu chemistry on Rink amide resin), RP-HPLC purified) [Cf-ARV-1502] | – | – | 25.1 | 3.1 | 30.2 | Kd [6]: 0.2 µM; Kd [7]: ~138 µM; Kd [8]: ~213 µM; Kd [9]: ~33.4 µM |
| [Ac6c]RPFFPRPYLPRKRPPRPVR-NH2 (source: synthetic peptide, bought: ABclonal, Inc) [peptide 105] | binds | binds | – | – | – | – |
| [Ac6c]RPDKPRPYLPRPRPPRPVR-NH2 (N-terminus assumed; SMILES CC(C)C[C@H](NC(=O)[C@H](Cc1ccc(O)cc1)NC(=O)[C@@H]1CCCN1C(=O)[C@H](CCCNC(=N)N)NC(=O)[C@@H]1CCCN1C(=O)[C@H](CCCCN)NC(=O)[C@H](CC(=O)O)NC(=O)[C@@H]1CCCN1C(=O)[C@H](CCCNC(=N)N)NC(=O)C1(N)CCCCC1)C(=O)N1CCC[C@H]1C(=O)N[C@@H](CCCNC(=N)N)C(=O)N1CCC[C@H]1C(=O)N[C@@H](CCCNC(=N)N)C(=O)N1CCC[C@H]1C(=O)N1CCC[C@H]1C(=O)N[C@@H](CCCNC(=N)N)C(=O)N1CCC[C@H]1C(=O)N[C@H](C(=O)N[C@@H](CCCNC(=N)N)C(N)=O)C(C)C) [ARV-1502] | – | – | – | – | – | refolding activity of the E. coli DnaK/DnaJ/GrpE-chaperone system (denatured luciferase refolding assay) at ARV-1502 concentrations ≥50 µmol/L, relative to no peptide [10]: ~60% |
